The results in this text go back to patent publication US20200407445A1 (ITEOS THERAPEUTICS, published 2020).

In assay [1] the target is T1, Human TIGIT-His (human, UniProt Q495A1 22-141, biotinylated in the ForteBio Fab assay).
T1 construct: bought (Creative Biomart); also called Biotinylated Human TIGIT HIS; TIGIT-His monomer; not shown: His tag
T1 sequence (looked up): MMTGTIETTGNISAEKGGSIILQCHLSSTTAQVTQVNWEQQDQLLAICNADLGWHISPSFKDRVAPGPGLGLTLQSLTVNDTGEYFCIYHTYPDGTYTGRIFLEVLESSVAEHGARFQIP
Description: Biacore, IgG captured, TIGIT-His in solution. The protocol: (§1) Biosensor analysis was conducted at 25° C. in a HBS-EP buffer system (10 mM HEPES pH 7.3, 150 mM NaCl, 3 mM EDTA, 0.05% Surfactant P20) using a Biacore 8K optical biosensor docked with a CMS sensor chip (GE Healthcare, Marlboro, Mass.). The sample hotel was maintained at 8° C. […] This surface type provided a format for reproducibly capturing fresh analysis antibody after each regeneration step. Flow cell 2 was used to analyze captured antibody (60-90 RU) while flow cell 1 was used as a reference flow cell. […] Each of the antigen sample concentrations were run as a single replicate. Two blank (buffer) injections also were run and used to assess and subtract system artefacts. The association (300 s) and dissociation (600 s) phases for all antigen concentrations were performed at a flow rate of 30 uL/min. The surface was regenerated with three sequential injections (15 s, 15 s and 60 s) of 10 mM glycine, pH 1.5 at a flow rate of 30 uL/min. The data was aligned, double referenced, and fit to a 1:1 binding model using Biacore 8K Evaluation Software, version 1.0.
(In general: Surface plasmon resonance follows binding to a sensor surface in real time, without labels.)

The target of assay [2] is T2, human TIGIT expressed on cells (human, UniProt Q495A1 22-244).
T2 construct: whole, on cells; on Jurkat E6.1 cells transduced with human TIGIT, on Promega TIGIT Effector cells or on human primary T cells; the assay field says which; also called hTIGIT; Jurkat-hTIGIT
T2 sequence (looked up): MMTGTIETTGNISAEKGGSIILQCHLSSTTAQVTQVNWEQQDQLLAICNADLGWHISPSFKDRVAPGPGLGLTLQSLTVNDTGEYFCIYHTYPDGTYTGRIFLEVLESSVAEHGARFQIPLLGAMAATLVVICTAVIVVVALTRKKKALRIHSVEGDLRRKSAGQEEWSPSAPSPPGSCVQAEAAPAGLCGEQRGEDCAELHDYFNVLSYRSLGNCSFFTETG
The assay is described as follows: flow cytometry, 100 nM Ab, Jurkat-hTIGIT vs untransfected. The protocol: (§2) Antibodies were incubated with the cells for 20 min at 4° C. in FACS buffer. […] Geometric mean fluorecence intensity was analysed using LSR BD Fortessa. Cell binding was recorded as the median florescence intensity of PE on the transfected line compared to the un-transfected line for each antibody (Table 3).
For orientation: A flow cytometer gives signals particle by particle.

Assay [3] has as its target T2, human TIGIT expressed on cells. Description: cell-based or functional assay.
For assay [4] the target is unchanged. Description: cell-based or functional assay. This is another data set of the same source.
Assay [5] addresses T3, Human TIGIT-Fc (human, UniProt Q495A1 22-141).
T3 construct: bought (Creative Biomart); also called TIGIT-Fc antigen; TIGIT-Fc fusion antigen; not shown: Fc part
T3 sequence (looked up): T1 sequence (looked up)
Description: ForteBio BLI, IgG KD, avid. The protocol:
Briefly, ForteBio affinity measurements were performed by loading IgGs on-line onto AHQ sensors. Sensors were equilibrated off-line in assay buffer for 30 min and then monitored on-line for 60 seconds for baseline establishment. Sensors with loaded IgGs were exposed to 100 nM antigen (human TIGIT-Fc, human TIGIT-His or cyno TIGIT-Fc) for 5 minutes, afterwards they were transferred to assay buffer for 5 min for off-rate measurement. Kinetics were analyzed using the 1:1 binding model.

The target of assay [6] is T2, human TIGIT expressed on cells. Description: flow cytometry, total human primary CD8+ T cells, % TIGIT stained cells, FIG. 10A.
In assay [7] the target is T1, Human TIGIT-His. The assay is described as follows: MSD-SET, monovalent (Fab or mAb titrated, not said which). The protocol:
(§3) Briefly, solution equilibrium titrations (SET) were performed in PBS+0.1% IgG-Free BSA (PBSF) with antigen (TIGIT-His monomer) held constant at 10-100 pM and incubated with 3- to 5-fold serial dilutions of Fab or mAbs starting at 10 pM-10 nM. Antibodies (20 nM in PBS) were coated onto standard bind MSD-ECL plates overnight at 4° C. or at room temperature for 30 min. Plates were then blocked by BSA for 30 min with shaking at 700 rpm, followed by three washes with wash buffer (PBSF+0.05% Tween 20). SET samples were applied and incubated on the plates for 150s with shaking at 700 rpm followed by one wash. Antigen captured on a plate was detected with 250 ng/mL sulfotag-labeled streptavidin in PBSF by incubation on the plate for 3 min. The plates were washed three times with wash buffer and then read on the MSD Sector Imager 2400 instrument using 1× Read Buffer T with surfactant. The percent free antigen was plotted as a function of titrated antibody in Prism and fit to a quadratic equation to extract the KD. To improve throughput, liquid handling robots were used throughout MSD-SET experiments, including SET sample preparation.

For assay [8], the target named is T2, human TIGIT expressed on cells. Description: flow cytometry on Jurkat-hTIGIT, FIG. 9. The protocol:
as §2

Assay [9] shares this target. The assay is described as follows: flow cytometry, competition with CD155-His (5 ug/ml) on Jurkat-hTIGIT.
Assay [10] deals with T1, Human TIGIT-His. The assay is described as follows: MSD-SET, monovalent (Fab or mAb titrated, not said which). The protocol: as §3
This is another data set of the same source.

Assay [11] concerns the target T1, Human TIGIT-His. The assay is described as follows: Biacore 8K, IgG on CM5 chip, human TIGIT-HIS in solution. The protocol: as §1
The target of assay [12] is T4, mouse TIGIT expressed on cells (mouse, UniProt P86176 29-249).
T4 construct: whole, on cells; on Jurkat cells engineered to express mouse TIGIT; also called mTIGIT; Jurkat-mTIGIT
T4 sequence (looked up): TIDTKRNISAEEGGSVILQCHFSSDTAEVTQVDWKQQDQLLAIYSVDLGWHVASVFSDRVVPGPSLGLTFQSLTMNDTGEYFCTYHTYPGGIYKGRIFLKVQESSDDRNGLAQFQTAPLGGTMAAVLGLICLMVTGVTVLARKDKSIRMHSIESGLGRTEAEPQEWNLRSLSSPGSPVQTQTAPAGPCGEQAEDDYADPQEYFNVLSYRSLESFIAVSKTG
Description: flow cytometry, 100 nM Ab, Jurkat-mTIGIT vs untransfected. The protocol: as §2

The target of assay [13] is T5, cynomolgus TIGIT on primary CD8+ T cells (Macaca fascicularis (cynomolgus), UniProt A0A7N9I9V4 89-312).
T5 construct: whole, on cells
The assay is described as follows: flow cytometry, cynomolgus CD69+CD8+ T cells, FIG. 11. The protocol:
Isolated PBMCs from Macaca fascicularis were obtained from BioPRIM. Cells were thawed and stimulated using the T cell activation/expansion kit for non-human primate (Miltenyi Biotec) at 1:2 (bead:cell ratio) following the manufacturer's specifications. The next day, cells were collected, counted and distributed at 5×10^4 cells per well. […] Then, cells were washed and incubated with the following antibodies and LVD mix for data illustrated in FIGS. 11A and 11B: anti-CD4-PercP-Cy5.5 (clone A161A1, BioLegend 357414); anti-CD8-BV510 (clone SK1, BD Bioscience 563919), CD69-APC-Cy7 (Clone FN50, BioLegend, 310914) and LVD efluor 520 (eBioscience 65-0867-14). Stained cells were analysed by FACS using BD LSR Fortessa. The EC50 value of binding was calculated using the % of positive TIGIT stained cells gated on LVD-CD69+CD8+ T cells.

T5 sequence (A0A7N9I9V4 entry or part of it): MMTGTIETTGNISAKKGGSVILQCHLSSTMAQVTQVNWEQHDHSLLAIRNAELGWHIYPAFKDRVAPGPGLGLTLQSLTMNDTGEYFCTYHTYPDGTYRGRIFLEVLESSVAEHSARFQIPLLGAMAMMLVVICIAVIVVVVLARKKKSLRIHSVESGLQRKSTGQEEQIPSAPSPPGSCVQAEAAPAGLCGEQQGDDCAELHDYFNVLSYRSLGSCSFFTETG

B1: anti-TIGIT antibody clone 29520 (IgG) (antibody, V domains shown)
VH: QVQLVESGGGLVQPGRSLRLSCAASGFTFRDYAMHWVRQAPGKGLEWVSGITWNSGLIGYADSVKGRFTISRDNAKNSLYLQMNSLRAEDTALYYCAKPVPRLRGLDVWGQGTMVTVSS
VL: DIQLTQSPSSVSASVGDRVTITCRASQGISSWLAWYQQKPGKAPKLLIYGASSLQSGVPSRFSGSGSGTDFTLTISSLQPEDFATYYCQQAFYLPWTFGGGTKVEIK
One may read the Kd as the constant that tells how readily two partners part at equilibrium. By EC50 is commonly meant the concentration that produces a half-maximal response. The IC50 is the midpoint of a concentration-inhibition curve. High values mean lower potency, low ones higher potency. For the molecule B1, the Kd in assay [1] came out at 0.716 nM; in assay [5], 0.384 nM; in [7], 0.21 nM; in assay [10] it was 0.21 nM; in assay [11], 0.716 nM. In addition, the “FON (Fold Over Negative)” value is 166 fold in [2] and 535 fold in assay [12]. In assay [3], the “EC50 for increase in IFNg secretion by human primary CD8 T cells, FIG. 13B” value stood at 11.1 nM. In assay [3], the “EC50 of Jurkat-hTIGIT cell activation (luciferase), FIG. 12B” value stood at 2.3 nM. Also, the “increase of IFNg secretion over isotype control, human primary CD8+ T cells + CHO-TCR-CD155” value in assay [3] turned out to be 5.4 fold. In assay [4], the “Induction over Isotype control (fold change), luciferase, Jurkat-hTIGIT + CHO-TCR-CD155, 133 nM” value was found to be 2.52 fold. The EC50 stood at 0.181 nM in [6], 0.119 nM in assay [8] and 1.73 nM in assay [13]. The molecule also yielded an IC50 in [9] of 0.102 nM.
